Reference: patent US20220289848A1 (published 2022)
Substitutions are numbered along the chain they refer to.

B1: PDL1a-E-HN (bispecific antibody)
heavy: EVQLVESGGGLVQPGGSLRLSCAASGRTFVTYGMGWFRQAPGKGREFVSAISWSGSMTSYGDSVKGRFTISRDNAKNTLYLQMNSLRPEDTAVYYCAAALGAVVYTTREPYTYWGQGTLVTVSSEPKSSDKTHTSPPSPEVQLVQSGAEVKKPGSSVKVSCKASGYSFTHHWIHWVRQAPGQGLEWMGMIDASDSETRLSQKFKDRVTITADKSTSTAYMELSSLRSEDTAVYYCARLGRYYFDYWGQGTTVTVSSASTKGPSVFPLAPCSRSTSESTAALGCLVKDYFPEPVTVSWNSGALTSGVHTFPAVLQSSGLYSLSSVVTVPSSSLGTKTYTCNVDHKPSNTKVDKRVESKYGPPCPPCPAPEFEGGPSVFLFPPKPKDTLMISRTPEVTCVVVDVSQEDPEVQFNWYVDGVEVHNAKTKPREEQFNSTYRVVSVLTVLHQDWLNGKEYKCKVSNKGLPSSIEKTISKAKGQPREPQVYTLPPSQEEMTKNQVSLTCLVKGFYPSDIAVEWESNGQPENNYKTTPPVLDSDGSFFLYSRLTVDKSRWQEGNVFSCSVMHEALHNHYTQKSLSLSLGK
light: EIVLTQSPATLSLSPGERATLSCRASENVGTYISWYQQKPGQAPRLLIYGASNRYTGIPARFSGSGSGTDFTLTISSLEPEDFAVYYCGESYGHLYTFGGGTKVEIKRTVAAPSVFIFPPSDEQLKSGTASVVCLLNNFYPREAKVQWKVDNALQSGNSQESVTEQDSKDSTYSLSSTLTLSKADYEKHKVYACEVTHQGLSSPVTKSFNRGEC
B2: PDL1c-E-HN (bispecific antibody)
heavy: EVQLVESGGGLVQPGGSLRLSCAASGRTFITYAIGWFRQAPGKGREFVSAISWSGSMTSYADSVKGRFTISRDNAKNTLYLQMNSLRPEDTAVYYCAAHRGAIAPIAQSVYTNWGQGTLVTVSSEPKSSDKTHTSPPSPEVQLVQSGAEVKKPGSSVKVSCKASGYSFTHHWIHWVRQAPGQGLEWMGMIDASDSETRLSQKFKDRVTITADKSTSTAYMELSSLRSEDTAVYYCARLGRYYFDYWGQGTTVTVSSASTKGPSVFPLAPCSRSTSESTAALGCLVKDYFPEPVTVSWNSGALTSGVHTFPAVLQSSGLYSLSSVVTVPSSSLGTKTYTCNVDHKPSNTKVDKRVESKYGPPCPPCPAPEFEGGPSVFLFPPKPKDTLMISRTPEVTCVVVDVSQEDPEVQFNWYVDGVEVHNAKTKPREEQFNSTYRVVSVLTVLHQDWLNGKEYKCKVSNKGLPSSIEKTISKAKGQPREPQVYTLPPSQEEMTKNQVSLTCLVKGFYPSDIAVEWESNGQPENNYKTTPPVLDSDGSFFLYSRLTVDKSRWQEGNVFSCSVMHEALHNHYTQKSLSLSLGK
light: B1 light
B3: PDL1a-G15-HC (bispecific antibody)
heavy: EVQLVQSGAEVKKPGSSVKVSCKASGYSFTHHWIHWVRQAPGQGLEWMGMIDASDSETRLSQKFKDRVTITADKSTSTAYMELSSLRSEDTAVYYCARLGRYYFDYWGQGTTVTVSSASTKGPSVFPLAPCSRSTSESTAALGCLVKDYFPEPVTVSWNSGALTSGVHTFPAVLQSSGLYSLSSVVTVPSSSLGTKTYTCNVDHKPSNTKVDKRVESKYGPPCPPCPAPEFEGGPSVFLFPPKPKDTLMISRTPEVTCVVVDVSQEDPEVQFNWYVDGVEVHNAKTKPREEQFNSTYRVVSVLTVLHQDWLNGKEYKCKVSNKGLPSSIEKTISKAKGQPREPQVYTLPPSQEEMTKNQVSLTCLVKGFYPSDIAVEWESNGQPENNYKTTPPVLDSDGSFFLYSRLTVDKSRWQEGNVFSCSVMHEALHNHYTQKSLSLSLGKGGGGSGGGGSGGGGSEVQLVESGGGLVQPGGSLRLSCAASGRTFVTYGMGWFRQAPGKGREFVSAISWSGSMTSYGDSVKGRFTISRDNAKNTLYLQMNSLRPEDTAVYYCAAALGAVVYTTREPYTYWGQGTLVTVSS
light: B1 light
B4: PDL1c-E-HC (bispecific antibody)
heavy: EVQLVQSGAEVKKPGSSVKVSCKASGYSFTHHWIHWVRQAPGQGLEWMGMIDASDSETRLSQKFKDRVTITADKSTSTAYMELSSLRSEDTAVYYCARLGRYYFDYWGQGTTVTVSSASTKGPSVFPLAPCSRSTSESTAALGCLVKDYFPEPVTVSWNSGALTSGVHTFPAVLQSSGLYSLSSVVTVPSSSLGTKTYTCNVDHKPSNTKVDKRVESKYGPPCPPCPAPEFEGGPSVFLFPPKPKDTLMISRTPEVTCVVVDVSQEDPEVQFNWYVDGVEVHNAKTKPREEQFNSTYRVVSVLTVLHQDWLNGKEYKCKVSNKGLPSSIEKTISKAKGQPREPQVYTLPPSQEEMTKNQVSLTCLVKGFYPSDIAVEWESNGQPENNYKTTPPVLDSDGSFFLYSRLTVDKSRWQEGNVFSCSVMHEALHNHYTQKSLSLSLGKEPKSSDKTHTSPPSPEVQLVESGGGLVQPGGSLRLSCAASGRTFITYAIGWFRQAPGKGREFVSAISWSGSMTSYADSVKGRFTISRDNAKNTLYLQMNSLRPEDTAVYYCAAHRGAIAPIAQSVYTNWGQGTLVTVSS
light: B1 light
B5: PDL1a-E-HC (bispecific antibody)
heavy: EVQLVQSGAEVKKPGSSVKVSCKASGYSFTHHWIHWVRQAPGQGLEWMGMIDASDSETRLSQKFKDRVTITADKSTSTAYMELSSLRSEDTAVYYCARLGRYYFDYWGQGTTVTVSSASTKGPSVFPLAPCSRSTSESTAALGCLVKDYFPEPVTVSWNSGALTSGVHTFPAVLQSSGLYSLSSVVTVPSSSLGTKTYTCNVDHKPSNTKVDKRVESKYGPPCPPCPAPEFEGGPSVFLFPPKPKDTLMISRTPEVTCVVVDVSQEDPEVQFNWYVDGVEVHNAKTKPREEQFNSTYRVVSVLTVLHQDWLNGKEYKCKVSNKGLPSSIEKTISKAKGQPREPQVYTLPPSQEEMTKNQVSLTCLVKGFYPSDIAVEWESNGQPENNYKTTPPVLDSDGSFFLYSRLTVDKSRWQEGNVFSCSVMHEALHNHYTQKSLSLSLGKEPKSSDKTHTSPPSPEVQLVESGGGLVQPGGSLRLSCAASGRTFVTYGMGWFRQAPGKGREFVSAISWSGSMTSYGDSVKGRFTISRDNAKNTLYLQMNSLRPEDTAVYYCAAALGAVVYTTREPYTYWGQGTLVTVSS
light: B1 light
B6: PDL1b-E-HC (bispecific antibody)
heavy: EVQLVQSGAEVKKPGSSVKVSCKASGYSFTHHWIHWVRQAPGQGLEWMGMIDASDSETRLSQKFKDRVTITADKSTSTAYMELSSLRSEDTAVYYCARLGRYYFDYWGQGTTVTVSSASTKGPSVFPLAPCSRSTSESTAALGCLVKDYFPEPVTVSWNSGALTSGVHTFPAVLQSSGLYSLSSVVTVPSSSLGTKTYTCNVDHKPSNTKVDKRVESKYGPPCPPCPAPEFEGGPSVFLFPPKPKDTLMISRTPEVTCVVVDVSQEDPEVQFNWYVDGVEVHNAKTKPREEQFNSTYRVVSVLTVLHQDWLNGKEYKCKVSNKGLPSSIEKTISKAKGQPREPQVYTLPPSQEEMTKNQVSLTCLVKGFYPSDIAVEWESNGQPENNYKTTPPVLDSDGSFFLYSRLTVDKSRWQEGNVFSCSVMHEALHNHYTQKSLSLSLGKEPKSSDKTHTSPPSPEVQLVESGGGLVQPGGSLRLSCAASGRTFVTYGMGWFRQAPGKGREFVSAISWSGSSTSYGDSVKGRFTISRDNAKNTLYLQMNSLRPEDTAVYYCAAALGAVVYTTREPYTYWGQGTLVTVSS
light: B1 light
B7: PDL1b-E-HN (bispecific antibody)
heavy: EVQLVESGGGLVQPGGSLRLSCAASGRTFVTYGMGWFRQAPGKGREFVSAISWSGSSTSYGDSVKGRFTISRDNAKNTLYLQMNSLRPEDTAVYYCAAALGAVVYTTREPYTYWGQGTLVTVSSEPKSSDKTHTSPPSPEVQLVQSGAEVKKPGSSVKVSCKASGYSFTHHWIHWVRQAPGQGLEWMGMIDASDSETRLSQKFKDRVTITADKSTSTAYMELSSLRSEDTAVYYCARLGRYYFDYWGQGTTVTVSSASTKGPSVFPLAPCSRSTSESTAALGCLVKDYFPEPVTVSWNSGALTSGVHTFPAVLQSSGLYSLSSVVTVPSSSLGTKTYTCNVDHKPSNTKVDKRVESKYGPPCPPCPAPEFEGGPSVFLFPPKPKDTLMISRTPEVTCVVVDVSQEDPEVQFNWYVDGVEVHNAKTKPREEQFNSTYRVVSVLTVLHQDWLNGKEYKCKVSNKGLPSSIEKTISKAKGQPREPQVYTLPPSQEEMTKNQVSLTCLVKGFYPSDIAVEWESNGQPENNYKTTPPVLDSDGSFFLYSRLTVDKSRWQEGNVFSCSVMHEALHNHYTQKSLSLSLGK
light: B1 light
B8: PDL1a-G15-HN (bispecific antibody)
heavy: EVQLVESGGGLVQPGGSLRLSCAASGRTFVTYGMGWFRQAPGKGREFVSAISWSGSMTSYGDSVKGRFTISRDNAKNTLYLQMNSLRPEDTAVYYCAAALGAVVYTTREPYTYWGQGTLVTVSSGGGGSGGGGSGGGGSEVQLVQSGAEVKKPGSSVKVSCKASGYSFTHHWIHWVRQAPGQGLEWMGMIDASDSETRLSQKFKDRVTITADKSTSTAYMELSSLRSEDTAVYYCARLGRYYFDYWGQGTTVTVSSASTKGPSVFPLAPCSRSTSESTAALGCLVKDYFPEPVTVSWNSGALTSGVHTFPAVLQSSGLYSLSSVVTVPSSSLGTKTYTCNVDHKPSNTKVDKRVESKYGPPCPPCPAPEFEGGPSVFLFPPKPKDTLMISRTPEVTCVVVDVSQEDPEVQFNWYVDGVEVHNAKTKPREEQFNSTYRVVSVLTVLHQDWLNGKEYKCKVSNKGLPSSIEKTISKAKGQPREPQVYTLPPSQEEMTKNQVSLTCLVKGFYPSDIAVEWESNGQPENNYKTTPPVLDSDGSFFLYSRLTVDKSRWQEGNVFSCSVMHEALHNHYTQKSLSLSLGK
light: B1 light
B9: anti-CD47 monoclonal antibody (mAb) (antibody, V domains shown)
VH: EVQLVQSGAEVKKPGSSVKVSCKASGYSFTHHWIHWVRQAPGQGLEWMGMIDASDSETRLSQKFKDRVTITADKSTSTAYMELSSLRSEDTAVYYCARLGRYYFDYWGQGTTVTVSS
VL: EIVLTQSPATLSLSPGERATLSCRASENVGTYISWYQQKPGQAPRLLIYGASNRYTGIPARFSGSGSGTDFTLTISSLEPEDFAVYYCGESYGHLYTFGGGTKVEIKR
B10: PDL1c-E-LN (bispecific antibody)
heavy: not shown
light: EVQLVESGGGLVQPGGSLRLSCAASGRTFITYAIGWFRQAPGKGREFVSAISWSGSMTSYADSVKGRFTISRDNAKNTLYLQMNSLRPEDTAVYYCAAHRGAIAPIAQSVYTNWGQGTLVTVSSEPKSSDKTHTSPPSPEIVLTQSPATLSLSPGERATLSCRASENVGTYISWYQQKPGQAPRLLIYGASNRYTGIPARFSGSGSGTDFTLTISSLEPEDFAVYYCGESYGHLYTFGGGTKVEIKRTVAAPSVFIFPPSDEQLKSGTASVVCLLNNFYPREAKVQWKVDNALQSGNSQESVTEQDSKDSTYSLSSTLTLSKADYEKHKVYACEVTHQGLSSPVTKSFNRGEC
B11: PDL1a-G15-LN (bispecific antibody)
heavy: not shown
light: EVQLVESGGGLVQPGGSLRLSCAASGRTFVTYGMGWFRQAPGKGREFVSAISWSGSMTSYGDSVKGRFTISRDNAKNTLYLQMNSLRPEDTAVYYCAAALGAVVYTTREPYTYWGQGTLVTVSSGGGGSGGGGSGGGGSEIVLTQSPATLSLSPGERATLSCRASENVGTYISWYQQKPGQAPRLLIYGASNRYTGIPARFSGSGSGTDFTLTISSLEPEDFAVYYCGESYGHLYTFGGGTKVEIKRTVAAPSVFIFPPSDEQLKSGTASVVCLLNNFYPREAKVQWKVDNALQSGNSQESVTEQDSKDSTYSLSSTLTLSKADYEKHKVYACEVTHQGLSSPVTKSFNRGEC
B12: PDL1a-E-LN (bispecific antibody)
heavy: not shown
light: EVQLVESGGGLVQPGGSLRLSCAASGRTFVTYGMGWFRQAPGKGREFVSAISWSGSMTSYGDSVKGRFTISRDNAKNTLYLQMNSLRPEDTAVYYCAAALGAVVYTTREPYTYWGQGTLVTVSSEPKSSDKTHTSPPSPEIVLTQSPATLSLSPGERATLSCRASENVGTYISWYQQKPGQAPRLLIYGASNRYTGIPARFSGSGSGTDFTLTISSLEPEDFAVYYCGESYGHLYTFGGGTKVEIKRTVAAPSVFIFPPSDEQLKSGTASVVCLLNNFYPREAKVQWKVDNALQSGNSQESVTEQDSKDSTYSLSSTLTLSKADYEKHKVYACEVTHQGLSSPVTKSFNRGEC
B13: PDL1b-E-LN (bispecific antibody)
heavy: not shown
light: B12 light with M57S

The binders below were run against CD47 expressed on CHO-K1 cells (UniProt Q08722 19-323) (assay: FACS).

EC50 [nM]	Binder
0.854	B1
0.7	B2
0.247	B3
0.287	B4
0.255	B5
0.328	B6
0.521	B7
0.664	B8
0.325	B9

These binders were tested against PD-L1 expressed on CHO-K1 cells (UniProt Q9NZQ7 19-290) (assay: FACS binding, CHO-K1 cells expressing PD-L1).
Sequence of PD-L1 expressed on CHO-K1 cells (Q9NZQ7 19-290): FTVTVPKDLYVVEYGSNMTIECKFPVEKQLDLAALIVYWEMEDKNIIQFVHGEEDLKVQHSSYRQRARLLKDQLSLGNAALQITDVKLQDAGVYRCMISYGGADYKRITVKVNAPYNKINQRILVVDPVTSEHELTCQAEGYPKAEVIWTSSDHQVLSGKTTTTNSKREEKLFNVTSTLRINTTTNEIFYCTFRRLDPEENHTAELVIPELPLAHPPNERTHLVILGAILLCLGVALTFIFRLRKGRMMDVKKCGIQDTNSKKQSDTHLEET

EC50 [nM]	Binder
0.718	B10
0.759	B1
1.48	B2
1.11	B11
0.351	B12
1.18	B13
